The source of these data is publication PMC10349104.

The target of test [1] is EVA-A(Y44A) (Amblyomma americanum). As to the kind of experiment: SPR. (Surface plasmon resonance follows binding to a sensor surface in real time, without labels.)
In test [2] the target is EVA-A(DN) (Amblyomma americanum). Kind of test: SPR.
Test [3] addresses EVA-A(L39P) (Amblyomma americanum). As to the kind of experiment: SPR.
Test [4] concerns the target EVA-AAM1001 (Amblyomma americanum). Kind of test: SPR.
Test [5] addresses EVA-A(C8) (Amblyomma americanum). As to the kind of experiment: SPR.
The target of a further test is T1, EVA-4, P0C8E9.
T1 chain: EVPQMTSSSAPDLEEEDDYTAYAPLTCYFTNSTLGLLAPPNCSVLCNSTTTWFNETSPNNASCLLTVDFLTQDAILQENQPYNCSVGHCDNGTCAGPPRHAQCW
Kind of test: not stated; Kd of EVA-4 for human chemokines, three readings (source data of Supplementary Fig. 7); method and conditions not told for EVA-4.

[6] abbreviates: remark: other sources report otherwise.

“And” between values parts separate entries of the source, which are not always exact repeats. Identical values can stand only once. Like-named read-outs stand apart in the source and are kept apart here.

B1: CCL15 (ligand)
chain: QFTNDAETELMMSKLPLENPVVLNSFHFAADCCTSYISQSIPCSLMKSYFETSSECSKPGVIFLTKKGRQVCAKPSGPGVQDCMKKLKPYSI
modifications: not checked
For B1, the Kd in test [1] (setting [6]) was 80.9 nM and 215 nM and 188 nM; in test [2] (setting [6]) it was 35.6 nM and 33.6 nM and 33 nM; in test [3] (setting [6]) it was 26.9 nM and 23 nM and 29.8 nM; in test [4] (setting [6]), 1.7 nM and 1.77 nM and 1.85 nM; in test [5] (setting [6]), 714 nM and 467 nM and 550 nM; in the test with EVA-4, P0C8E9, 287 nM and 216 nM and 218 nM. For the same molecule, the off-rate constant (koff) in test [1] (setting [6]) is 0.00852 s⁻¹ and 0.0138 s⁻¹ and 0.0129 s⁻¹; in test [2] (setting [6]), 0.00216 s⁻¹ and 0.00209 s⁻¹ and 0.00218 s⁻¹; in test [3] (setting [6]), 0.0026 s⁻¹ and 0.00246 s⁻¹ and 0.00303 s⁻¹; in test [4] (setting [6]) it was 0.000308 s⁻¹ and 0.000311 s⁻¹ and 0.000314 s⁻¹; in test [5] (setting [6]), 0.0149 s⁻¹ and 0.0104 s⁻¹ and 0.013 s⁻¹. For the same molecule, the on-rate (kon) in test [1] (setting [6]) is 105000 M⁻¹ s⁻¹ and 64300 M⁻¹ s⁻¹ and 68500 M⁻¹ s⁻¹; in test [2] (setting [6]) it was 60800 M⁻¹ s⁻¹ and 62100 M⁻¹ s⁻¹ and 66000 M⁻¹ s⁻¹; in test [3] (setting [6]) it was 96500 M⁻¹ s⁻¹ and 107000 M⁻¹ s⁻¹ and 101000 M⁻¹ s⁻¹; in test [4] (setting [6]), 182000 M⁻¹ s⁻¹ and 175000 M⁻¹ s⁻¹ and 170000 M⁻¹ s⁻¹; in test [5] (setting [6]), 20800 M⁻¹ s⁻¹ and 22300 M⁻¹ s⁻¹ and 23700 M⁻¹ s⁻¹.

B2: CCL14 (ligand)
chain: TKTESSSRGPYHPSECCFTYTTYKIPRQRIMDYYETNSQCSKPGIVFITKRGHSVCTNPSDKWVQDYIKDMKEN
modifications: not checked
Regarding B2, the dissociation constant Kd is 0.12 nM and 0.125 nM and 0.0725 nM in test [1]; 0.12 nM and 0.109 nM and 0.11 nM in test [2]; 0.0403 nM and 0.0431 nM and 0.0505 nM in test [3]; 0.0551 nM and 0.0372 nM and 0.0569 nM in test [4]; 1.09 nM and 1.16 nM and 1.66 nM in test [5]; 0.765 nM and 1.17 nM and 1.14 nM with EVA-4, P0C8E9. Besides, the off-rate constant (koff) in test [1] was 6.21e-05 s⁻¹ and 5.76e-05 s⁻¹ and 3.35e-05 s⁻¹; in test [2], 8.54e-05 s⁻¹ and 7.6e-05 s⁻¹ and 7.69e-05 s⁻¹; in test [4] it was 6.24e-05 s⁻¹ and 5.52e-05 s⁻¹ and 6.41e-05 s⁻¹; in test [5] it was 0.000525 s⁻¹ and 0.00045 s⁻¹ and 0.000476 s⁻¹. The kon in test [1] is 519000 M⁻¹ s⁻¹ and 462000 M⁻¹ s⁻¹; in test [2], 714000 1/(M s) and 697000 1/(M s) (2×); in test [4], 1.1e+06 1/(M s) (2×) and 1.5e+06 1/(M s); in test [5], 482000 M⁻¹ s⁻¹ and 389000 M⁻¹ s⁻¹ and 288000 M⁻¹ s⁻¹.

B3: CCL4, P13236 24-92 (ligand)
chain: APMGSDPPTACCFSYTARKLPRNFVVDYYETSSLCSQPAVVFQTKRSKQVCADPSESWVQEYVYDLELN
B3: the Kd with EVA-4, P0C8E9 (setting [6]) is 212 nM and 126 nM and 137 nM.

Broadly, the Kd is a measure of binding affinity in units of concentration. The low end stands for higher affinity, the high end for lower affinity. What is called koff is the first-order rate constant of dissociation. A word on the kon: it is the rate constant with which the complex forms. A high value points to fast association.
